Experimental data taken from the DeepSol protein solubility set.

Assay: soluble on expression in E. coli; label from the status in PepcDB or PDB records

Row | Sequence | soluble on expression in E. coli
1 | MVTGLICFTGCSDDFLKDKKVYGSYDASVVYENYETAKSRVDFLYQSLLPSSTGGSNALTDITSAGIDDDFSKCTEEYGDYSIFNDPTASLTIQTVPDYFYVINSERSPWGRIRECNNVIEGVTGSATLSQTEKEQLLGQAYFFRAWRYYLLVKMYGGVPIVDHVQNPVIGDGNGENLVIPRSSTKACIDFICDDLELAASYLPARWQNEGQDYGRITAGAALALKGRTLLLYASPLFNRADDASRWKDAYDANFAAITKLNEGNFGLAYEGNGGEDNAKNWARMFATYTGGSEAVFVTLYNNVSPIASQNINRYNLWEQGIRPGNINGGGGKTPTAEIIDIFPMIDGKKPMESGVHYDPKKFFLNRDPRFYRTFAFPGVEWKFNSGNVDFSGATMSGLCPTRYTSGANYELWNYCWYTTADERNNPSRSGFAADMLGTKNRGVYVRKRSDDFDLGTSLYVFTDNSSGDQQGFRRSAAPYMEIRYAEVLLNLAESACGAGGTYHAEGVKALKAVRGRVGYTSANNYGLDAAIETDRAKLFEAILYERQVELAFEGKRAYDMRRWMLFDGGVGQGALNASWALSGFGGNTCTYLGVTPMNERGKRYRIEINVEGTGSANNDSDPIKNVERPAALTLNEKIATEADGETILDPAVSSICTFYDTYFSRKDISLDGNVLDINPYFQPRYYFFGLRQSAQQTNATLYQTIGWEDYAHGGMGTFDPLAE | not soluble
2 | MGSDKIHHHHHHMRRFFKNNLRNLSQNGETNSVRRCFALADVTVVINGRTLTVPDNLTVIEACEKAGIEIPALCHHPRLGESIGACRVCVVEVEGARNLQPACVTKVRDGMVIKTSSDRVKTARKFNLALLLSEHPNDCMTCEANGRCEFQDLIYKYDVEPIFGYGTKEGLVDRSSPAIVRDLSKCIKCQRCVRACSELQGMHIYSMVERGHRTYPGTPFDMPVYETDCIGCGQCAAFCPTGAIVENSAVKVVLEELEKKEKILVVQTAPSVRVAIGEEFGYAPGTISTGQMVAALRRLGFDYVFDTNFGADLTIMEEGSEFLERLEKGDLEDLPMFTSCCPGWVNLVEKVYPELRTRLSSAKSPQGMLSAMVKTYFAEKLGVKPEDIFHVSIMPCTAKKDEALRKQLMVNGVPAVDVVLTTRELGKLIRMKKIPFANLPEEEYDAPLGISTGAAALFGVTGGVMEAALRTAYELKTGKALPKIVFEEVRGLKGVREAEIDLDGKKIRIAVVHGTANVRNLVEKILRREVKYHFVEVMACPGGCIGGGGQPYSRDPEILRKRAEAIYTIDERMTLRKSHENPAIKKLYEEYLEHPLSHKAHELLHTYYEDRSRKKRLAVK | not soluble
3 | MGHHHHHHGGHMSLTSALPRPAPSPYARRKTALVIGAGFGGLALGIRLQSLGFDTTILERLDGPGGRAYQKRTPDGYVFDMGPTVLTVPHFIEELFALERDRAGLDAPDYPPEVLSGERVKEGVSGGPHTSRYVTLVPILPFYRIVFHDGTYFDYDGDPESTRRQIAELAPGDLAGYERFHADAEAIFRRGFLELGYTHFGDVPTMLRVVPDLLKLDAVRTLFSFTSKYFQSDKLRQVFSFETLLVGGNPLSVPAIYAMIHFVEKTWGIHYAMGGTGALVRGLVQKFEELGGAIRYGAGVDEVLVDGNLPGKRTARGVRLESGEELRADLVASNGDWANTYLKRVRPSARLVNSDLRVKAASESMSLLVVYFGFRGGDDLPLKHHNILLGPRYEALLSEIFGTKRLGEDFSQYLHVPTLTDPALAPAGHHAAYTLVPVPHNGSGIDWDVEGPKLAEAALADIERRGLIPGLRERLTHFEFITPDYFAGTLDSYLGNAFGPEPRLVQSAFFRPHNRSEDLHNFYLVGAGAQPGAGTPSVMMSAKMTARLIAEDFGIHADIREGGS | soluble
4 | MGSDKIHHHHHHMNILFINSIGRNKFGGGEKWMVNAAKGLTDRGHNVVLASKRNSRLLDYAAGSGVRTEVMEIRGDFSPLATLKIAAWMKRHQTDILICNLNKDVRVAGLAARLVGRPVVLARHGMLLCSKKWKHKLSLTRLTDGIVTNSRTIREAYAGYGWFSENFVKVIYNGLTIPAEVTAFDFASRYPGKKIIYSAGRLSKQKGFEYLIDAAAMLKRKRDDLLFAISGEGKLEIELKNRVAALGLKGSFVFLGFTPDIYPFLKGCDLFVLASLFEGMPNVVMEAMAMQKPVIATDVNGARELMGASPESLVCDTGLIIPPKNPAAIAEAIEQIIDNPALLEAYGKAGHQRVETHFTVPIMIDNLEKHLQSKLAEKAGRC | not soluble
5 | MGQEVSLLAVKTEPLNSSETTATTGDGALDTFTGSVITSSGYSPRSAHQYSPQLYPSKPYPHILSTPAAQTMSAYAGQTQYSGMQQPAVYTAYSQTGQPYSLPTYDLGVMLPAIKTESGLSQTQSPLQSGCLSYSPGFSTPQPGQTPYSYQMPGSSFAPSSTIYANNSVSNSTNFSGSQQDYPSYTAFGQNQYAQYYSASTYGAYMTSNNTADGTPSSTSTYQLQESLPGLTNQPGEFDTMQSPSTPIKDLDERTCRSSGSKSRGRGRKNNPSPPPDSDLERVFVWDLDETIIVFHSLLTGSYAQKYGKDPPMAVTLGLRMEEMIFNLADTHLFFNDLEECDQVHIDDVSSDDNGQDLSTYSFATDGFHAAASSANLCLPTGVRGGVDWMRKLAFRYRRVKELYNTYKNNVAGLLGPAKRDAWLQLRAEIEGLTDSWLTNALKSLSIISTRSNCINVLVTTTQLIPALAKVLLYSLGGAFPIENIYSATKIGKESCFERIMQRFGRKVVYVVIGDGVEEEQAAKKHNMPFWRISSHSDLLALHQALELEYL | not soluble
6 | MNRIIDMRCRPPLPEFREYFDIPRITWHGARTGAKQVSRAFVEGSMDLFFEEMDQAGIEIAVVQGRNSPAVFMGKQFNAAFIPNERLAQIQDQYAGRFVCFAGIDVSNTAHNAVEETVRSIKSLGLKGIFIEPGRQIQSTPDDERIFPVYEKCIELDIPVNLMSGPYAGADIGVSDPLYVDRLCTRYPELKIILGHGGYPYVQQILGVAFKHTNLFVSPDMYVFAPGGQAYIDAANGALRDQMVYGSAYPLRPVTQTVSDTLGLGLSADSERAYLELNARKLLNIAAALEHHHHHH | not soluble
7 | MSHHRIIIIGAGAAGVGMAITLQEFNIKDVLIVEKGTIGHSFKHWPLSTKTITPSFTTNGFGMPDMNAIAKDTSPAFTFNEEHLSGKRYAEYLSLVATHYNLNVKTNTNVSRVTYIDGIYHVSTYYGVYTADYIFIATGDYSFPYHPFSYGLHYSEIQTFTQLKGDAFTIIGGNESAFDAAINLSQTGARISIYTSKTGLKKEDADPSIRLSPYTQQRLRNAIQEGALIEMHVGYQARKITYQNHSYKIHFDNGHIVHSHTEPIIATGFDVTQNPLIEQLFQVRQSEVQLTELDESTKFPNVFLIGATVRHQNAILCYIYKFRARFAVLARIVSLREGLPEDTSLIQSYRQKNMFLDDYSCCDVNCTCLEHHHHHH | not soluble
8 | MEFRRKCSRSAMRHKSQKRRAMPNQDVEKVNEIFKFPRISEQALMDGILKISCIASFKNGNQRCFEGSIYVKELCGLRNGTKVFKFIELANIRLYSIDEEDEIPEYDWIISV | not soluble
9 | MSLIERVRTDLYRIPLPTRLTDSTHGAMMDFELITVRIEDSDGATGLGYTYTVNHGGAAVATMVDKDLRGCLLGADAEQIEKIWQSMWWRLHYAGRGGHATSAISAVDIALWDLKGIRARTPLWKLFGGYDPVVPVYAGGIDLELPVADLKTQADRFLAGGFRAIKMKVGRPDLKEDVDRVSALREHLGDSFPLMVDANMKWTVDGAIRAARALAPFDLHWIEEPTIPDDLVGNARIVRESGHTIAGGENLHTLYDFHNAVRAGSLTLPEPDVSNIGGYTTFRKVAALAEANNMLLTSHGVHDLTVHALASVPHRTYMEAHGFGLHAYMAEPMAVTDGCVSAPDRPGHGVVLDFERLGRLAVGEGHHHHHH | soluble
10 | MTPISGRCEMAEVTNIPNPGHTSSWYAASANVKSVRPTLEGALEADVCIIGGGFTGISAALELSERGYAVIVLEGVRVGFGASGRNGGQIVNGYSRDLETIARRYGHEKAVKLGEMSLEGGTIIRSRVAKYGIDCDLVDGGFFAAFTPKQIREMEAHKAHWEKHGHGGLEMVSEADVGQYVKTNRYAGGMIDRFGGHIHPLNLVQGEAAAAESLGARIFENSRVIAVEQGANPIVRTAMGSVKAKYVLVCGNAYLGTLLPEIGERMMPVSSQVMATEPLDADLIEALLPANYCVEDANYILDYYRRTSDNRLLYGGGIGYGGSDPADLTGVIRPNMLKTFPQLEKTKIEFAWSGNFALTLTRIPHMGRLSDNIYFSHGDSGHGVTTTHLLGKILGEAVAGHAERFDIWSSLPNYPFPGGKTFRVPLTMLGAWWYGLRDKLGLLEHHHHHH | not soluble
11 | MEEDNQSPSPSESSIKTDYDAKIRVLYSTKNNKSEEESVFAHRLVLSTFSPLFQQLLQDATSSSTSTTSSTSSDDVISISLDLTAFPNALAAFKVILEALYTGDIKMKSVAANEVLAVSRHCQISSLEPKIMSAVAPLPLNLANILNCSQSVPLNSNPFLQYTSPPIQNYLSSMISLWSNPFFSALFGNTTGTPSLPFSPQSDTENSRTQSEGSSPRANSTSTPPTTDLEKIVPNDDKEGWCRNKKYIEKVDGGFMCTVCRKIYGRYNSVSYHVTIYHRNPPIKCEENGCNFSTREARYIHFHKYYRHHIPLPENIDLGSRKCPFCRHVSKSPAMLEKHIARHETDGTSGGTPGALKRAQSKKKIVPTMTTDVIDPNVSSIFAPTNPAGNIPIQCSLCPFSTHSTDLLFIHLAMQHAQELAQCSGLLADNSSETSTSSSSDGEPMITDIDLDVKPLIDQSLMLHLNTPLSN | not soluble
12 | MEKQEEEDVKRRQRQKAATSLGFLHWEELKNHGDLSKVALNIALTTLVDDASTGFCIMNLVNLIVLRESSQGYLLTYEGKLASLASATYVKAFISLWVLEDAERHAWSFRTFSLTFPLDDPILDTFLELTGVTEAGEFVYAPTTLQSPFHALYFDPQRNSFRRVIYEGLADDEFRRRNRLGYERHHILPNHIESLISL | soluble
13 | MNELVSIITPCYNSAATIRETIRSVIAQSYVNWELLIIDDCSNDDSVKIIMEFMDTDSRIYYLKTEHPSGGPTLPRNVGIQAAKGRFIAFLDSDDIWLPNKLSTQLPLFINDNVAIVYSDYEKISEEGNRTGRIVKSDPYHHYKSLLCGNELGCLTVVYDTQKIGKRYFKFIGHEDYNLWLDILKEGFIAINTNICLALYRIRKGSVSSNKLRVIKWIWHIYRVEQKKTIWLSLYYSLSDLNKSLFKYLKLEHHHHHH | soluble
14 | MGSDKIHHHHHHMGGKWMRWMAPAPPASNVPKCSCHRLLGKEPPNDSKDCRPGSLTGRALFSDVPRGMAKDVFQVHCVSATGRRVINKKIKRAKLLAFLETLPRCVVGMEACGSAHHWGGELRKLGHDVRLMPAAYVKLYVKRGKTDAADAEAICEAVRRQSMRFVEIESEDQQAVLAIHSARDLVVRQRTQVVNMIRSILREFGHILPTGIEAVSKFAREHGTEDQLDMPEIADGILGVMCHQLNGLNARVDGLTKLIEQHAWLDADARRLMRMPGIGPITASAIVATIGDAKQFETGRDLATWLGLTPLNKSSGGKERLGRIIKKGDRYIRKLLIIGMTSRSLMAKNKPEKADTWTAKLPDEQPFRLATVAMANKSARIIWALLTKREEYRQPIV | not soluble
15 | MSLKKVKCITGMISLQGKRPTNEDTEIVKDKIKKDKIKFGLYAVFDGHGGSGTSQAAISVVEEELMKSELMKKKMYEEMMNEIFSKSDKILCNTVYDNSGCTAAVVLVIGRFLICANVGDSEVLVISEGKQYEVLSVQHKAKLPDEKKRITSLGVPVYGGRVYGSLAVSRSLGDKQYKGGRGAVISTPHVKVYEMTKKDKAFVISCDGIYETLNYDDVVDWVITGMKLNKAPTIIAENIAMDALEKGSKDNVSVIVSLLKWKEGHHHHHH | not soluble
